Ends that are not written are not given here.
Assays:
Assay in all cases: cyclic peptide substitution array
ApoC3 peptide F61D = molecular target: T1, ApoC3 peptide F61D (human, cyclic (thioether))
T1 peptide: DKDSEFWDLDPEV
Method in brief: (§1)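 Peptide microarrays incubated with antibody samples, then stained with goat anti-human IgG (Fc) DyLight680 and anti-HA DyLight800 control antibodies, scanned at intensity 7/7 (red/green). Secondary-only pre-stain checked background binding; framing HA peptides served as quality control; substitution effects read as changes in spot intensity.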

ApoC3 peptide F64E = molecular target: T2, ApoC3 peptide F64E (human, cyclic (thioether))
T2 peptide: DKFSEEWDLDPEV
Method in brief: as §1

ApoC3 peptide P69F = molecular target: T3, ApoC3 peptide P69F (human, not fully specified; cyclic (thioether))
T3 peptide: DKFSEFWDLDFEV
Method in brief: as §1

ApoC3 peptide E70F = molecular target: T4, ApoC3 peptide E70F (human, cyclic (thioether))
T4 peptide: DKFSEFWDLDPFV
Method in brief: as §1

ApoC3 peptide V71F = molecular target: T5, ApoC3 peptide V71F (human, thioether (positions not given here); also: cyclic (thioether), ring places not given here)
T5 peptide: DKFSEFWDLDPEF
Method in brief: as §1

ApoC3 peptide L67H = molecular target: T6, ApoC3 peptide L67H (human, thioether (positions not given here); not fully specified (bridges); also: thioether between a C-terminal Cys side chain and a modified N-terminus, the Cys is not in the chain)
T6 peptide: DKFSEFWDHDPEV
Method in brief: as §1

ApoC3 peptide P69H = molecular target: T7, ApoC3 peptide P69H (human, not fully specified; cyclic (thioether))
T7 peptide: DKFSEFWDLDHEV
Method in brief: as §1

ApoC3 peptide D59K = molecular target: T8, ApoC3 peptide D59K (human, thioether (positions not given here); not fully specified (C-terminus, bridges))
T8 peptide: KKFSEFWDLDPEV
Method in brief: as §1

ApoC3 peptide D59L = molecular target: T9, ApoC3 peptide D59L (human, thioether (positions not given here); not fully specified (C-terminus, bridges))
T9 peptide: LKFSEFWDLDPEV
Method in brief: as §1

ApoC3 peptide P69L = molecular target: T10, ApoC3 peptide P69L (human, not fully specified; cyclic (thioether))
T10 peptide: DKFSEFWDLDLEV
Method in brief: as §1

ApoC3 peptide P69M = molecular target: T11, ApoC3 peptide P69M (human, not fully specified; cyclic (thioether))
T11 peptide: DKFSEFWDLDMEV
Method in brief: as §1

ApoC3 peptide D59N = molecular target: T12, ApoC3 peptide D59N (human, thioether (positions not given here); not fully specified (C-terminus, bridges); also: cyclised via thioether between a C-terminal Cys and a modified N-terminus, the Cys and the N-terminal …)
T12 peptide: NKFSEFWDLDPEV
Method in brief: as §1

ApoC3 peptide K60N = molecular target: T13, ApoC3 peptide K60N (human, cyclic (thioether))
T13 peptide: DNFSEFWDLDPEV
Method in brief: as §1

ApoC3 peptide W65N = molecular target: T14, ApoC3 peptide W65N (human, not fully specified; cyclic (thioether))
T14 peptide: DKFSEFNDLDPEV
Method in brief: as §1

ApoC3 peptide E70Q = molecular target: T15, ApoC3 peptide E70Q (human, cyclic (thioether))
T15 peptide: DKFSEFWDLDPQV
Method in brief: as §1

ApoC3 peptide D68R = molecular target: T16, ApoC3 peptide D68R (human, cyclic (thioether))
T16 peptide: DKFSEFWDLRPEV
Method in brief: as §1

ApoC3 peptide D59S = molecular target: T17, ApoC3 peptide D59S (human, thioether (positions not given here); not fully specified (C-terminus, bridges); also: cyclised via thioether between a C-terminal Cys and a modified N-terminus, the Cys and the N-terminal …)
T17 peptide: SKFSEFWDLDPEV
Method in brief: as §1

ApoC3 peptide P69S = molecular target: T18, ApoC3 peptide P69S (human, not fully specified; cyclic (thioether))
T18 peptide: DKFSEFWDLDSEV
Method in brief: as §1

ApoC3 peptide F61V = molecular target: T19, ApoC3 peptide F61V (human, cyclic (thioether))
T19 peptide: DKVSEFWDLDPEV
Method in brief: as §1

ApoC3 peptide E63V = molecular target: T20, ApoC3 peptide E63V (human, cyclic (thioether))
T20 peptide: DKFSVFWDLDPEV
Method in brief: as §1

ApoC3 peptide L67V = molecular target: T21, ApoC3 peptide L67V (human, thioether (positions not given here); not fully specified (bridges); also: thioether between a C-terminal Cys side chain and a modified N-terminus, the Cys is not in the chain)
T21 peptide: DKFSEFWDVDPEV
Method in brief: as §1

ApoC3 peptide D68V = molecular target: T22, ApoC3 peptide D68V (human, not fully specified; cyclic (thioether))
T22 peptide: DKFSEFWDLVPEV
Method in brief: as §1

ApoC3 peptide F64W = molecular target: T23, ApoC3 peptide F64W (human, thioether (positions not given here); not fully specified (bridges); also: cyclic (thioether), positions not given here)
T23 peptide: DKFSEWWDLDPEV
Method in brief: as §1

ApoC3 peptide L67W = molecular target: T24, ApoC3 peptide L67W (human, thioether (positions not given here); not fully specified (bridges); also: thioether between a C-terminal Cys side chain and a modified N-terminus, the Cys is not in the chain)
T24 peptide: DKFSEFWDWDPEV
Method in brief: as §1

ApoC3 peptide V71W = molecular target: T25, ApoC3 peptide V71W (human, not fully specified; cyclic (thioether))
T25 peptide: DKFSEFWDLDPEW
Method in brief: as §1

ApoC3 peptide D68Y = molecular target: T26, ApoC3 peptide D68Y (human, cyclic (thioether))
T26 peptide: DKFSEFWDLYPEV
Method in brief: as §1

ApoC3 peptide D59A = molecular target: T27, ApoC3 peptide D59A (human, thioether (positions not given here); not fully specified (C-terminus, bridges))
T27 peptide: AKFSEFWDLDPEV
Method in brief: as §1

ApoC3 peptide F64A = molecular target: T28, ApoC3 peptide F64A (human, cyclic (thioether))
T28 peptide: DKFSEAWDLDPEV
Method in brief: as §1

ApoC3 peptide L67A = molecular target: T29, ApoC3 peptide L67A (human, not fully specified; cyclic (thioether))
T29 peptide: DKFSEFWDADPEV
Method in brief: as §1

ApoC3 peptide F61C = molecular target: T30, ApoC3 peptide F61C (human, cyclic (thioether))
T30 peptide: DKCSEFWDLDPEV
Method in brief: as §1

% of binding to wild-type peptide (ApoC3 peptide F61D): 16% | % of binding to wild-type peptide (ApoC3 peptide F64E): 283% | % of binding to wild-type peptide (ApoC3 peptide P69F): 11.6% | % of binding to wild-type peptide (ApoC3 peptide E70F): 40.1% | % of binding to wild-type peptide (ApoC3 peptide V71F): 81.4% | % of binding to wild-type peptide (ApoC3 peptide L67H): 3.58% | % of binding to wild-type peptide (ApoC3 peptide P69H): 10.7% | % of binding to wild-type peptide (ApoC3 peptide D59K): 30.6% | % of binding to wild-type peptide (ApoC3 peptide D59L): 33.6% | % of binding to wild-type peptide (ApoC3 peptide P69L): 16.7% | % of binding to wild-type peptide (ApoC3 peptide P69M): 29.3% | % of binding to wild-type peptide (ApoC3 peptide D59N): 52.5% | % of binding to wild-type peptide (ApoC3 peptide K60N): 153% | % of binding to wild-type peptide (ApoC3 peptide W65N): 0% | % of binding to wild-type peptide (ApoC3 peptide E70Q): 68% | % of binding to wild-type peptide (ApoC3 peptide D68R): 0% | % of binding to wild-type peptide (ApoC3 peptide D59S): 57.7% | % of binding to wild-type peptide (ApoC3 peptide P69S): 86.9% | % of binding to wild-type peptide (ApoC3 peptide F61V): 20.2% | % of binding to wild-type peptide (ApoC3 peptide E63V): 4.2% | % of binding to wild-type peptide (ApoC3 peptide L67V): 84.8% | % of binding to wild-type peptide (ApoC3 peptide D68V): 0% | % of binding to wild-type peptide (ApoC3 peptide F64W): 88.5% | % of binding to wild-type peptide (ApoC3 peptide L67W): 1.45% | % of binding to wild-type peptide (ApoC3 peptide V71W): 68.7% | % of binding to wild-type peptide (ApoC3 peptide D68Y): 0.16% | % of binding to wild-type peptide (ApoC3 peptide D59A): 44.4% | % of binding to wild-type peptide (ApoC3 peptide F64A): 220% | % of binding to wild-type peptide (ApoC3 peptide L67A): 21% | % of binding to wild-type peptide (ApoC3 peptide F61C): 0.51%
B1: Llama antibody 5E5 (antibody, V domains shown)
VH: QLQLVESGGGLVQPGGSLRLSCAASGFTFGTYSMRWVRQVPRKALEWVSSISTDGGGTAYRDSVKGRFTISRDNAKNTLYLQMNNLKPEDTAIYYCVIAGYSDWGQGTQVTVSS
VL: ATMLTQSPGSLSVVPGESASISCKTSQGLVHSDGKTYFYWFLQKPGQSPQQLIYQVSNRASGVPDRFTGSGSGTDFTLKISGVKAEDAGVYYCAQGTYYPHTFGSGTRLEIK
notes: detected with goat anti-human IgG (Fc); also called mAb 5E5
